Assay [1] deals with T1, His6-Pex5c, C-terminal fragment (residues 295-612) of S. cerevisiae PEX5 (S. cerevisiae, UniProt P35056 295-612).
T1 construct: Pex5p (PEX5), PTS1 import receptor, S. cerevisiae, C-terminal fragment residues 295-612; Plasmid was a gift of Brooke M. Gardner; also called Pex5p C-terminal fragment; C-terminal truncation of Pex5p; not shown: His6, N-terminal, kept
T1 sequence (looked up): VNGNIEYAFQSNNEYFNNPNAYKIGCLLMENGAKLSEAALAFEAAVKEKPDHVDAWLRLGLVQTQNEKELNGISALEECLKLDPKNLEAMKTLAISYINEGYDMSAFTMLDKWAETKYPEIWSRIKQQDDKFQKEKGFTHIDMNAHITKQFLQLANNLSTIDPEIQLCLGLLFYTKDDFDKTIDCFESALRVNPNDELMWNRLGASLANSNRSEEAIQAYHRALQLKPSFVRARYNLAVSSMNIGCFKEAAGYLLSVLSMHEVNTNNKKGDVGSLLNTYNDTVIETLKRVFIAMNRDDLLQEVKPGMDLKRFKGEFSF
The assay can be described thus: fluorescence polarisation; direct titration: His6-Pex5C from 6.5 uM downward in twofold increments against 20 nM 5FAM-…; 50 mM HEPES pH 7.4, 100 mM NaCl, 0.05% Tween-20; equilibrated 16 h at 4 °C; anisotropy converted to fraction bound. The note with it: both partners purified.

Assay [2] deals with T1, His6-Pex5c, C-terminal fragment …. The assay can be described thus: fluorescence polarisation; competition: 375 nM Pex5c and 20 nM 5FAM-…, unlabelled … (4 mM to 3.8 nM) or … (0.5 mM to 0.47 nM) added; 50 mM HEPES pH 7.4, 100 mM NaCl, 0.05% Tween-20; equilibrated 16 h at 4 °C; fit with equation 17 of Roehrl et al. The note with it: both partners purified.

Primed or numbered codes have the meaning given here. Ends that are not written are not given here. 5FAM′ = 5-carboxyfluorescein

B1: 5-Carboxyfluorescein-LGRGRRSKL (peptide)
peptide: {5FAM′}-LGRGRRSKL
notes: ePTS1: linker LGRGRR selected from a randomized six-residue linker library, followed by the canonical PTS1 SKL; also called fluorescein-tagged ePTS1 peptide; source: synthetic peptide, bought: Elim Biopharmaceuticals Inc
In turn, B1 displayed a dissociation constant Kd in assay [1] of 355 ± 6.38 nM.

B2: PTS1 peptide (DELYKGSKL) (peptide)
peptide: DELYKGSKL
notes: peptide that results from fusion of the canonical PTS1 (SKL) to the C-terminus of YFP; source: synthetic peptide, bought: Elim Biopharmaceuticals Inc
In assay [2], B2 showed a Kd of 176000 ± 17300 nM.

B3: ePTS1 peptide (LGRGRRSKL) (peptide)
peptide: LGRGRRSKL
notes: ePTS1: linker LGRGRR selected from a randomized six-residue linker library, followed by the canonical PTS1 SKL; also called enhanced PTS1; source: synthetic peptide, bought: Elim Biopharmaceuticals Inc
In the case of B3, in assay [2], the affinity, expressed as Kd, was 800 ± 100 nM.

These data come from article PMC5476825, “Towards repurposing the yeast peroxisome for compartmentalizing heterologous metabolic pathways” (Nature Communications, 2016).
